Data published in paper PMC9825669.
Several values for one entry are separate records, joined by “and”; a condition that tells them apart may be missing. Identical values can stand only once.

Molecular target: LtMCC α6β6 dodecamer (L. tarentolae (endogenous in L. tarentolae TATII/UC cells))
Assay: filament lengths counted on cryoEM micrographs

- stoichiometry N: 4 and 6
Substance: LtMCC α6β6 dodecamer (complex)
